Experimental data taken from paper PMC9359528, “DNA binding by the Rad9A subunit of the Rad9-Rad1-Hus1 complex”.
Changes are numbered by the printed parent chain.

Assays:
Assay in all cases: EMSA; EMSA: 20 mM Tris-HCl pH 7.6, 80 mM NaCl, 1 mM DTT, 1 mM EDTA, 1.5% glycerol, 200 ng/ml poly dI/dC, 50 ug/ml BSA, 10 nM DNA; 6% native PAGE in 50 mM Tris-borate
WT Rad9A 94-266 = molecular target: T1, WT Rad9A 94-266 (Homo sapiens, UniProt Q99638 94-266); conditions: protein: recombinant; tags: His; label: 5'-fluorescein (6-carboxyfluorescein) on HC40; blunt
T1 sequence: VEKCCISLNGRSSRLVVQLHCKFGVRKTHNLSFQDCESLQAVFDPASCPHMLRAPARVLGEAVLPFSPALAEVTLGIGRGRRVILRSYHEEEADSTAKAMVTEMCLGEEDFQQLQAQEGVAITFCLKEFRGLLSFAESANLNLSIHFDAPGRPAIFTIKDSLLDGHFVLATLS

WT Rad9A 1-133 = molecular target: T2, WT Rad9A 1-133 (Homo sapiens, UniProt Q99638 1-133); conditions: protein: recombinant; tags: N-terminal His; label: 5'-fluorescein (6-carboxyfluorescein) on HC40; blunt
T2 sequence: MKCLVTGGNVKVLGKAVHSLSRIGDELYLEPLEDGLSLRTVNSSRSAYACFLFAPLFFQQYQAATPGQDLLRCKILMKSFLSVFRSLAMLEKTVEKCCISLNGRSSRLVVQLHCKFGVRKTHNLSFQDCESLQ

TM Rad9A 1-266 = molecular target: T3, TM Rad9A 1-266 (Homo sapiens, UniProt Q99638 1-266, K11A;K15A;R22A); conditions: protein: recombinant; tags: His; label: 5'-fluorescein (6-carboxyfluorescein) on HC40; blunt
T3 sequence: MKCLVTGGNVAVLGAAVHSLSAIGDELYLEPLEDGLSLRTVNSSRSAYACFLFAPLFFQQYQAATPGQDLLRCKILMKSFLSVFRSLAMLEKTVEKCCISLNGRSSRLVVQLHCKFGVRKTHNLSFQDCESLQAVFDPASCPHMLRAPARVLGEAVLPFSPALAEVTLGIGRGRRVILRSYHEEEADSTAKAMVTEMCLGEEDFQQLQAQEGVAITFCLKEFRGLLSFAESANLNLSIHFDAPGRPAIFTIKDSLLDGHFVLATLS

WT Rad9A 1-266 = molecular target: T4, WT Rad9A 1-266 (Homo sapiens, UniProt Q99638 1-266); conditions: protein: recombinant; tags: N-terminal His; label: 5'-fluorescein (6-carboxyfluorescein) on HC40; blunt
T4 sequence: T3 sequence with A11K, A15K, A22R

DM Rad9A 94-266 = molecular target: T5, DM Rad9A 94-266 (Homo sapiens, UniProt Q99638 94-266, R150A;R223A); conditions: protein: recombinant; tags: His; label: 5'-fluorescein (6-carboxyfluorescein) on HC40; blunt
T5 sequence: T1 sequence with R57A, R130A

TM Rad9A 1-133 = molecular target: T6, TM Rad9A 1-133 (Homo sapiens, UniProt Q99638 1-133, K11A;K15A;R22A); conditions: protein: recombinant; tags: His; label: 5'-fluorescein (6-carboxyfluorescein) on HC40; blunt
T6 sequence: T2 sequence with K11A, K15A, R22A

LD Rad9A 94-266 = molecular target: T7, LD Rad9A 94-266 (Homo sapiens, UniProt Q99638 94-266, del160-163); conditions: protein: recombinant; tags: His; label: 5'-fluorescein (6-carboxyfluorescein) on HC40; blunt
T7 sequence: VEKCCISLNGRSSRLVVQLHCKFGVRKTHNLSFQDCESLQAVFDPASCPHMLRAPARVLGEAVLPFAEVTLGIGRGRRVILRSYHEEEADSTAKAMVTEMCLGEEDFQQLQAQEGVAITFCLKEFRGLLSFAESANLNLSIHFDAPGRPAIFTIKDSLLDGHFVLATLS

QM1 Rad9A 1-266 = molecular target: T8, QM1 Rad9A 1-266 (Homo sapiens, UniProt Q99638 1-266, K11A;K15A;R22A;K78A); conditions: protein: recombinant; tags: His; label: 5'-fluorescein (6-carboxyfluorescein) on HC40; blunt
T8 sequence: T3 sequence with K78A

K220A Rad9A 94-266 = molecular target: T9, K220A Rad9A 94-266 (Homo sapiens, UniProt Q99638 94-266, K220A); conditions: protein: recombinant; tags: His; label: 5'-fluorescein (6-carboxyfluorescein) on HC40; blunt
T9 sequence: T1 sequence with K127A

R223A Rad9A 94-266 = molecular target: T10, R223A Rad9A 94-266 (Homo sapiens, UniProt Q99638 94-266, R223A); conditions: protein: recombinant; tags: His; label: 5'-fluorescein (6-carboxyfluorescein) on HC40; blunt
T10 sequence: T1 sequence with R130A

WT Rad9A 134-266 = molecular target: T11, WT Rad9A 134-266 (Homo sapiens, UniProt Q99638 134-266); conditions: protein: recombinant; tags: N-terminal His; label: 5'-fluorescein (6-carboxyfluorescein) on HC40; blunt
T11 sequence: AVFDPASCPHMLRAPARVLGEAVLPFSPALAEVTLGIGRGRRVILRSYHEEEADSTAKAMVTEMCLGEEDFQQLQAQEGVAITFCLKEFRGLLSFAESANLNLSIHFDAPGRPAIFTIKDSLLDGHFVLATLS

B1: HC40/HG40 (dsDNA)
DNA 1: CCGAGGAATTCGCCTTCTGCTCCATAGCCACTGGTTGTAG
DNA 2: CTACAACCAGTGGCTATGGAGCAGAAGGCGAATTCCTCGG
WT Rad9A 94-266
  Kd: 1500 ± 400 nM
WT Rad9A 1-133
  Kd: 820 ± 150 nM
TM Rad9A 1-266
  Kd: 120 ± 30 nM
WT Rad9A 1-266
  Kd: 50 ± 10 nM
DM Rad9A 94-266
  Kd: 7790 ± 880 nM
TM Rad9A 1-133
  Kd: 7740 ± 680 nM
LD Rad9A 94-266
  Kd: 6120 ± 1270 nM
QM1 Rad9A 1-266
  Kd: 1770 ± 790 nM
K220A Rad9A 94-266
  Kd: 6400 ± 750 nM
R223A Rad9A 94-266
  Kd: 1170 ± 690 nM
WT Rad9A 134-266
  Kd: 3000 ± 620 nM
